Measured values taken from US20230022970A1, “USE OF GLIAL CELL LINE-DERIVED NEUROTROPHIC FACTOR (GDNF) FOR THE TREATMENT OF ENTERIC NEUROPATHIES” (TRANSFERT PLUS, société en commandite, priority 2019, published 2023).
Where no end group is shown, it is not given here.

B1: HisGDNF: 6×His-tagged version of GDNF used for enema treatments (protein, UniProt P39905 78-211, looked up)
Glial cell line-derived …: SPDKQMAVLPRRERNRQAAAANPENSRGKGRRGQRGKNRGCVLTAIHLNVTDLGLGYETKEELIFRYCSGSCDAAETTYDKILKNLSRNRRLVSDKVGQACCRPIAFDDDLSFLDDNLVYHILRKHSAKRCGCI
modifications: 6xHis tag
notes: 6×His-tagged version of GDNF used for enema treatments
B2: Noggin: Noggin homodimer (46 kDa), Sigma Cat. # SRP4675, tested neurotrophic molecule (protein, UniProt Q13253 28-232, looked up)
Noggin: QHYLHIRPAPSDNLPLVDLIEHPDPIFDPKEKDLNETLLRSLLGGHYDPGFMATSPPEDRPGGGGGAAGGAEDLAELDQLLRQRPSGAMPSEIKGLEFSEGLAQGKKQRLSKKLRRKLQMWLWSQTFCPVLYAWNDLGSRFWPRYVKVGSCFSKRSCSVPEGMVCKPSKSVHLTVLRWRCQRRGGQRCGWIPIQYPIISECKCSC

Experiments:
[1] = test system: Hol^Tg/Tg mice (model for Trisomy 21 [Collagen VI]-associated HSCR); test: GDNF enema treatment, survival of Hol^Tg/Tg pups; format: in vivo, mouse; conditions: 10 μg in 10 μl PBS enema once daily P4-P8, Hol^Tg/Tg mice
Experimental: (§1) For all enema treatments, mutant mouse pups were identified at P3 via pigmentation-based genotyping. Unless specified otherwise (see FIG. 1), 10 μl enemas consisting of a 1 μg/μl solution of recombinant human mature GDNF (Peprotech cat. #450-10) diluted in PBS were administered daily between P4 to P8. […] Other tested molecules (1 μg/μl solution in 10 μl enemas) included the serotonin receptor (5-HT4R) agonist RS67506 (R&D Systems, Cat. #0990), Noggin (Sigma, Cat. # SRP4675), endothelin-3 (Sigma, Cat. # E9137), serotonin (Sigma, Cat. # H9523), and L-ascorbic acid (Sigma, Cat. # A4403). Enemas were administered using a 24-gauge gavage needle (Fine Science Tools, Canada) attached to a micropipette. The head of the gavage needle was introduced in the rectum just beyond the anus (pre-lubricated with Vaseline™), and enemas were injected over the course of a few seconds. Pups were then placed back with their mother, and either sacrificed at P20 for tissue analysis or checked daily to track survival.
It was first tested if GDNF enemas in young mice could enhance enteric neuron numbers and restore function in distal aganglionic bowel using three mouse models of short-segment HSCR. Selected lines were Holstein (Hol^Tg/Tg; a model for Trisomy 21 [Collagen VI]-associated HSCR) (39), TashT (TashT^Tg/Tg; a model for male-biased HSCR) (40), and Piebald-lethal (Ednrb^S-l/s-l; a model for EDNRB mutation-associated HSCR) (41). The enema volume necessary to fill whole colon, concentration of GDNF homodimer (30 kDa), treatment time window, as well as duration and frequency of therapy were first determined with Hol^Tg/Tg pups (FIGS. 1A-D). […] Remarkably, the selected treatment (i.e. daily administration of 10 μg GDNF in PBS as 10 μl enemas for 5 consecutive days between postnatal day [P]4 to P8) prevented death by megacolon in about half of Hol^Tg/Tg mice at P28, the maximum age of survival for control Hol^Tg/Tg mice (FIG. 2A). Most animals surviving to P28 reached adult age after GDNF treatment and mice evaluated could reproduce (two tested breeding pairs were fertile). […]

Hol^Tg/Tg mice = test: Time-course immunofluorescence of HisGDNF distribution and RET expression in distal colon; format: in vivo, mouse
Experimental: as §1
Tissue labelling and imaging. […] EdU was detected using the Invitrogen Click-iT EdU Imaging Kit (ThermoFisher Scientific, Cat. # C10337) in accordance with the manufacturer's instructions. […]

Molecule	life expectancy [1]	distribution in colon submucosa, smooth muscles and subsets of enteric neurons (Hol^Tg/Tg mice; distal colon 2 h after treatment on P4, P6 and P8, Hol^Tg/Tg)	levels of the main GDNF receptor RET (Hol^Tg/Tg mice; distal colon, P4-P8 treatment, Hol^Tg/Tg)
COc1cc(N)c(Cl)cc1C(=O)CCC1CCN(CCNS(C)(=O)=O)CC1 [RS67506]	failed to increase life expectancy	–	–
endothelin-3 (CTCFTYKDKECVYYCHLDIIW; ends and bridges not checked; cysteine pairing not given here; UniProt P14138 97-117, looked up) [endothelin-3 monomer (26 kDa), Sigma Cat. # E9137, tested neurotrophic molecule]	failed to increase life expectancy	–	–
B1	–	accumulated over time	increased
B2	failed to increase life expectancy	–	–
